Results as given in patent publication US20140235820A1, “METHODS AND COMPOSITIONS FOR MODULATING THE Wnt PATHWAY” (Genentech, Inc., priority 2010, published 2014).

What was measured:
LRP6 E4 = target: T1, LRP6 E4 (Homo sapiens, UniProt O75581); assay: Biolayer interferometry binding to LRP6 E4
T1 construct: construct E4-T933-Q1253; made in house; host or cells: Tni insect cells (baculovirus, secreted)
T1 sequence (O75581 933-1253): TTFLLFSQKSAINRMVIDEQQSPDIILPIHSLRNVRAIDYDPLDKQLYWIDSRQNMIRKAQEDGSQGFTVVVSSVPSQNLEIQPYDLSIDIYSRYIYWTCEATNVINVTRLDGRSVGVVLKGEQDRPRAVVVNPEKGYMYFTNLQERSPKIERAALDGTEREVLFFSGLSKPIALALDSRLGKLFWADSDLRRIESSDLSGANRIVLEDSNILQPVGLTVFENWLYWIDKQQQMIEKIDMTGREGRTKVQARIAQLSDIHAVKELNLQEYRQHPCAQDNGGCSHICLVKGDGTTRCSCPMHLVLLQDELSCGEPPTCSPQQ
Experimental: (§1) Binding kinetics were measured by biolayer interferometry using an Octet Red instrument (ForteBio) as previously described (11). Streptavidin (SA) biosensors were loaded with biotinylated hLRP6 in 50 mMTris, pH 8, 300 mM NaCl, 5% (v/v) glycerol, and 0.05% (w/v) Triton X-100. The loaded biosensors were washed in the same buffer before carrying out association and dissociation measurements for the indicated times. The Kd of each interaction was determined using steady state-analysis through the Octet Red software v6.3. Each reported value represents an average of three or more experiments at different concentrations, with a fitted experimental curve for which the square of the correlation coefficient (R^2) is above 0.96.
The interaction of the different Dkks and sclerostin with various domains of LRP6 was measured using a biolayer interferometry assay (11). Purified receptors contained individual β-propeller-EGF-like units (E1, E2, or E4), two β-propellers (E1E2 or E3E4), or four β-propellers (E1E4))—as follows:
Human LRP6: construct E1E4-amino acids A20-Q1253 of LPR6; construct E1E2-amino acids A20-E631 of LPR6; construct E3E4 amino acids E631-Q1253 of LPR6; construct E1-amino acids A20-D325 of LPR6; construct E2-amino acids […]-E631 of LPR6; construct E4-T933-Q1253. The individual LRP6 β-propeller E3 could not be expressed.

[1] = target: T2, human LRP6 construct E1E2 (amino acids A20-E631) (human, UniProt O75581 20-631, biotinylated for biolayer interferometry); assay: BLI (FIG. 9B)
T2 construct: range 20-631; also called LRP6 E1E2
T2 sequence (looked up): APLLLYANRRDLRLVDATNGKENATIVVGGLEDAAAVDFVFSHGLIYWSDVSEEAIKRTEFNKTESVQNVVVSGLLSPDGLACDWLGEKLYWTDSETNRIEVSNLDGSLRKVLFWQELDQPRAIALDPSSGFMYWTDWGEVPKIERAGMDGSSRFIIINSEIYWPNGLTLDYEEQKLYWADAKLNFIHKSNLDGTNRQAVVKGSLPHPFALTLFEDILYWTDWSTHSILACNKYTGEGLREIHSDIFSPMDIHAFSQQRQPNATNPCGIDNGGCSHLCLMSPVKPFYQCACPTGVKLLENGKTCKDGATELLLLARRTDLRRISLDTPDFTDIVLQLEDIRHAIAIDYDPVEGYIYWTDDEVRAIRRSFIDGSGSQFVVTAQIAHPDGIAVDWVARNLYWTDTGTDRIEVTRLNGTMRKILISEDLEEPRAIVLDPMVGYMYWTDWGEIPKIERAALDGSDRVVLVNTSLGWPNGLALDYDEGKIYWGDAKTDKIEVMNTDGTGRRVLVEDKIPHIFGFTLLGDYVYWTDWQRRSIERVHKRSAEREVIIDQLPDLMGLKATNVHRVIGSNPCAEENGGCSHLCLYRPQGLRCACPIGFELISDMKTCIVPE
Experimental: as §1, with “(R²)” for “(R^2)”

Molecule	binding to LRP6 E4 (in words) (LRP6 E4)	binding result [1]
Dkk1: Dickkopf 1 protein, Wnt pathway inhibitor, expressed in insect cells (NSNAIKN)	undetectable	
Dkk1 K211E (ligand, human, UniProt O94907 32-266, looked up, also called Dkk1 Lys211Glu) TLNSVLNSNAIKNLPPPLGGAAGHPGSAVSAAPGILYPGGNKYQTIDNYQPYPCAEDEECGTDEYCASPTRGGDAGVQICLACRKRRKRCMRHAMCCPGNYCKNGICVSSDQNHFRGEIEETITESFGNDHSTLDGYSRRTTLSSKMYHTKGQEGSVCLRSSDCASGLCCARHFWSKICEPVLKEGQVCTKHRRKGSHGLEIFQRCYCGEGLSCRIQKDHHQASNSSRLHTCQRH		binds
